To fix the notation:
T1: biotinylated huIL-23R-IgG (human, UniProt Q5VWK5 24-353, biotinylated)
T1 construct: not shown: human IgG1 Fc
T1 sequence: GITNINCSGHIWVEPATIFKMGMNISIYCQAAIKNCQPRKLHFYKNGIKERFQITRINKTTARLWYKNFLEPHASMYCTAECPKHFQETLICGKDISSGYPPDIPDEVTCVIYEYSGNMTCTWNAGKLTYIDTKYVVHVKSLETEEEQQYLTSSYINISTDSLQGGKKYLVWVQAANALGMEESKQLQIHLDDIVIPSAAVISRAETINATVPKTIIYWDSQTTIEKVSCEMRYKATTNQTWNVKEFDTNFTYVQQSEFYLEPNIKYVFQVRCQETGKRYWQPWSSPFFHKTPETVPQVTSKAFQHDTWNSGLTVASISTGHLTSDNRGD

B1: chimeric 8B10 Fab, VH H102A (Fab, V domains shown)
VH: EVKLVESGGGLEQPKGSLKLSCTVSGFDFNSYGMSWVRQAPGKGLDLVADINSKSYNYATYYADSVKDRFTISRDDSQSMVYLEMDNLKTEDTALYYCTVHASDYFEYWGQGVMVTVSS
VL: DIQMTQSPASLSASLGETVSIECLASEDIYNNLAWYQQKPGKSPQLLIYHASSLQDGVPSRFSGSGSGTQYSLKINSLESEDAATYFCLQDSEYPPTFGGGTKLELKR
notes: Rat V domains with human CH1 and CL; E. coli periplasmic extract
B2: chimeric 8B10 Fab, VH K54A (Fab, V domains shown)
VH: EVKLVESGGGLEQPKGSLKLSCTVSGFDFNSYGMSWVRQAPGKGLDLVADINSASYNYATYYADSVKDRFTISRDDSQSMVYLEMDNLKTEDTALYYCTVHHSDYFEYWGQGVMVTVSS
VL: DIQMTQSPASLSASLGETVSIECLASEDIYNNLAWYQQKPGKSPQLLIYHASSLQDGVPSRFSGSGSGTQYSLKINSLESEDAATYFCLQDSEYPPTFGGGTKLELKR
notes: as for B1
B3: chimeric 8B10 Fab, VH A49G (Fab, V domains shown)
VH: EVKLVESGGGLEQPKGSLKLSCTVSGFDFNSYGMSWVRQAPGKGLDLVGDINSKSYNYATYYADSVKDRFTISRDDSQSMVYLEMDNLKTEDTALYYCTVHHSDYFEYWGQGVMVTVSS
VL: DIQMTQSPASLSASLGETVSIECLASEDIYNNLAWYQQKPGKSPQLLIYHASSLQDGVPSRFSGSGSGTQYSLKINSLESEDAATYFCLQDSEYPPTFGGGTKLELKR
notes: as for B1
B4: chimeric 8B10 Fab, VH H101A (Fab, V domains shown)
VH: EVKLVESGGGLEQPKGSLKLSCTVSGFDFNSYGMSWVRQAPGKGLDLVADINSKSYNYATYYADSVKDRFTISRDDSQSMVYLEMDNLKTEDTALYYCTVAHSDYFEYWGQGVMVTVSS
VL: DIQMTQSPASLSASLGETVSIECLASEDIYNNLAWYQQKPGKSPQLLIYHASSLQDGVPSRFSGSGSGTQYSLKINSLESEDAATYFCLQDSEYPPTFGGGTKLELKR
notes: as for B1
B5: chimeric 8B10 Fab, VH D50A (Fab, V domains shown)
VH: EVKLVESGGGLEQPKGSLKLSCTVSGFDFNSYGMSWVRQAPGKGLDLVAAINSKSYNYATYYADSVKDRFTISRDDSQSMVYLEMDNLKTEDTALYYCTVHHSDYFEYWGQGVMVTVSS
VL: DIQMTQSPASLSASLGETVSIECLASEDIYNNLAWYQQKPGKSPQLLIYHASSLQDGVPSRFSGSGSGTQYSLKINSLESEDAATYFCLQDSEYPPTFGGGTKLELKR
notes: as for B1
B6: chimeric 8B10 Fab, VH S103A (Fab, V domains shown)
VH: EVKLVESGGGLEQPKGSLKLSCTVSGFDFNSYGMSWVRQAPGKGLDLVADINSKSYNYATYYADSVKDRFTISRDDSQSMVYLEMDNLKTEDTALYYCTVHHADYFEYWGQGVMVTVSS
VL: DIQMTQSPASLSASLGETVSIECLASEDIYNNLAWYQQKPGKSPQLLIYHASSLQDGVPSRFSGSGSGTQYSLKINSLESEDAATYFCLQDSEYPPTFGGGTKLELKR
notes: as for B1
B7: chimeric 8B10 Fab, VH F106A (Fab, V domains shown)
VH: EVKLVESGGGLEQPKGSLKLSCTVSGFDFNSYGMSWVRQAPGKGLDLVADINSKSYNYATYYADSVKDRFTISRDDSQSMVYLEMDNLKTEDTALYYCTVHHSDYAEYWGQGVMVTVSS
VL: DIQMTQSPASLSASLGETVSIECLASEDIYNNLAWYQQKPGKSPQLLIYHASSLQDGVPSRFSGSGSGTQYSLKINSLESEDAATYFCLQDSEYPPTFGGGTKLELKR
notes: as for B1
B8: chimeric 8B10 Fab, VH Y32A (Fab, V domains shown)
VH: EVKLVESGGGLEQPKGSLKLSCTVSGFDFNSAGMSWVRQAPGKGLDLVADINSKSYNYATYYADSVKDRFTISRDDSQSMVYLEMDNLKTEDTALYYCTVHHSDYFEYWGQGVMVTVSS
VL: DIQMTQSPASLSASLGETVSIECLASEDIYNNLAWYQQKPGKSPQLLIYHASSLQDGVPSRFSGSGSGTQYSLKINSLESEDAATYFCLQDSEYPPTFGGGTKLELKR
notes: as for B1
B9: chimeric 8B10 Fab, VH Y58G (Fab, V domains shown)
VH: EVKLVESGGGLEQPKGSLKLSCTVSGFDFNSYGMSWVRQAPGKGLDLVADINSKSYNGATYYADSVKDRFTISRDDSQSMVYLEMDNLKTEDTALYYCTVHHSDYFEYWGQGVMVTVSS
VL: DIQMTQSPASLSASLGETVSIECLASEDIYNNLAWYQQKPGKSPQLLIYHASSLQDGVPSRFSGSGSGTQYSLKINSLESEDAATYFCLQDSEYPPTFGGGTKLELKR
notes: as for B1
B10: chimeric 8B10 Fab, VH D104A (Fab, V domains shown)
VH: EVKLVESGGGLEQPKGSLKLSCTVSGFDFNSYGMSWVRQAPGKGLDLVADINSKSYNYATYYADSVKDRFTISRDDSQSMVYLEMDNLKTEDTALYYCTVHHSAYFEYWGQGVMVTVSS
VL: DIQMTQSPASLSASLGETVSIECLASEDIYNNLAWYQQKPGKSPQLLIYHASSLQDGVPSRFSGSGSGTQYSLKINSLESEDAATYFCLQDSEYPPTFGGGTKLELKR
notes: as for B1
B11: chimeric 8B10 Fab, VH S53A (Fab, V domains shown)
VH: EVKLVESGGGLEQPKGSLKLSCTVSGFDFNSYGMSWVRQAPGKGLDLVADINAKSYNYATYYADSVKDRFTISRDDSQSMVYLEMDNLKTEDTALYYCTVHHSDYFEYWGQGVMVTVSS
VL: DIQMTQSPASLSASLGETVSIECLASEDIYNNLAWYQQKPGKSPQLLIYHASSLQDGVPSRFSGSGSGTQYSLKINSLESEDAATYFCLQDSEYPPTFGGGTKLELKR
notes: Rat V domains with human CH1 and CL; E. coli periplasmic extract; also called S53A (heavy chain variable domain)
B12: chimeric 8B10 Fab, VH S31A (Fab, V domains shown)
VH: EVKLVESGGGLEQPKGSLKLSCTVSGFDFNAYGMSWVRQAPGKGLDLVADINSKSYNYATYYADSVKDRFTISRDDSQSMVYLEMDNLKTEDTALYYCTVHHSDYFEYWGQGVMVTVSS
VL: DIQMTQSPASLSASLGETVSIECLASEDIYNNLAWYQQKPGKSPQLLIYHASSLQDGVPSRFSGSGSGTQYSLKINSLESEDAATYFCLQDSEYPPTFGGGTKLELKR
notes: as for B1
B13: chimeric 8B10 Fab, VH R74A (Fab, V domains shown)
VH: EVKLVESGGGLEQPKGSLKLSCTVSGFDFNSYGMSWVRQAPGKGLDLVADINSKSYNYATYYADSVKDRFTISADDSQSMVYLEMDNLKTEDTALYYCTVHHSDYFEYWGQGVMVTVSS
VL: DIQMTQSPASLSASLGETVSIECLASEDIYNNLAWYQQKPGKSPQLLIYHASSLQDGVPSRFSGSGSGTQYSLKINSLESEDAATYFCLQDSEYPPTFGGGTKLELKR
notes: as for B1
B14: chimeric 8B10 Fab, VH E107A (Fab, V domains shown)
VH: EVKLVESGGGLEQPKGSLKLSCTVSGFDFNSYGMSWVRQAPGKGLDLVADINSKSYNYATYYADSVKDRFTISRDDSQSMVYLEMDNLKTEDTALYYCTVHHSDYFAYWGQGVMVTVSS
VL: DIQMTQSPASLSASLGETVSIECLASEDIYNNLAWYQQKPGKSPQLLIYHASSLQDGVPSRFSGSGSGTQYSLKINSLESEDAATYFCLQDSEYPPTFGGGTKLELKR
notes: as for B1
B15: chimeric 8B10 Fab, VH I51A (Fab, V domains shown)
VH: EVKLVESGGGLEQPKGSLKLSCTVSGFDFNSYGMSWVRQAPGKGLDLVADANSKSYNYATYYADSVKDRFTISRDDSQSMVYLEMDNLKTEDTALYYCTVHHSDYFEYWGQGVMVTVSS
VL: DIQMTQSPASLSASLGETVSIECLASEDIYNNLAWYQQKPGKSPQLLIYHASSLQDGVPSRFSGSGSGTQYSLKINSLESEDAATYFCLQDSEYPPTFGGGTKLELKR
notes: as for B1
B16: chimeric 8B10 Fab, VH N52A (Fab, V domains shown)
VH: EVKLVESGGGLEQPKGSLKLSCTVSGFDFNSYGMSWVRQAPGKGLDLVADIASKSYNYATYYADSVKDRFTISRDDSQSMVYLEMDNLKTEDTALYYCTVHHSDYFEYWGQGVMVTVSS
VL: DIQMTQSPASLSASLGETVSIECLASEDIYNNLAWYQQKPGKSPQLLIYHASSLQDGVPSRFSGSGSGTQYSLKINSLESEDAATYFCLQDSEYPPTFGGGTKLELKR
notes: as for B1
B17: chimeric 8B10 Fab, VH G33A (Fab, V domains shown)
VH: EVKLVESGGGLEQPKGSLKLSCTVSGFDFNSYAMSWVRQAPGKGLDLVADINSKSYNYATYYADSVKDRFTISRDDSQSMVYLEMDNLKTEDTALYYCTVHHSDYFEYWGQGVMVTVSS
VL: DIQMTQSPASLSASLGETVSIECLASEDIYNNLAWYQQKPGKSPQLLIYHASSLQDGVPSRFSGSGSGTQYSLKINSLESEDAATYFCLQDSEYPPTFGGGTKLELKR
notes: as for B1
B18: chimeric 8B10 Fab, VH S55A (Fab, V domains shown)
VH: EVKLVESGGGLEQPKGSLKLSCTVSGFDFNSYGMSWVRQAPGKGLDLVADINSKAYNYATYYADSVKDRFTISRDDSQSMVYLEMDNLKTEDTALYYCTVHHSDYFEYWGQGVMVTVSS
VL: DIQMTQSPASLSASLGETVSIECLASEDIYNNLAWYQQKPGKSPQLLIYHASSLQDGVPSRFSGSGSGTQYSLKINSLESEDAATYFCLQDSEYPPTFGGGTKLELKR
notes: as for B1

The record followed here is patent US20110158992A1 (SCHERING, published 2011).

This experiment addresses T1, biotinylated huIL-23R-IgG. As to the kind of experiment: ECL binding assay, periplasmic Fab extracts, biotinylated huIL-23R-IgG; AUC vs parental 8B10 Fab. An excerpt:
The N31T change was introduced as a result of affinity maturation experiments, as follows. An E. coli expression vector for expression into the periplasmic space was constructed encoding a chimeric Fab fragment of rat antibody 8B10 comprising rat variable domains, a human constant light chain domain (CL) and a human constant heavy chain domain CH1. Mutations were introduced using a QuikChange® site directed mutagenesis kit (Stratagene Inc., LaJolla, Calif., USA). Primers were designed to replace selected positions with either alanine, or by all 20 amino acids, using the NNK codon approach (N includes an equimolar mix of A/G/C/T and K includes only G/T). To reduce background, alanine mutants at each position were used as the template for the randomization step. Unpurified periplasmic extracts were then tested for human IL-23R binding activity using an electrochemiluminescence assay with biotinylated huIL-23R-IgG and goat anti-huFab-Ori-Tag for detection. The area under the curve was used to compare the binding activity of sequence variants to the original parental 8B10 Fab. Data were fitted using GraphPad Prism® 3.0 software (Graphpad Software inc., San Diego, Calif. USA).
Take B1: the “Binding (% of w.t.)” value was 84.2 % of w.t.

B2: the “Binding (% of w.t.)” value was 71.1 % of w.t.

In the case of B3, the “Binding (% of w.t.)” value is 79 % of w.t.

As for B4, the “Binding (% of w.t.)” value is 29.1 % of w.t.

As for B5, the “Binding (% of w.t.)” value was 67.3 % of w.t.

For B6, the “Binding (% of w.t.)” value was 65.7 % of w.t.

Take B7: the “Binding (% of w.t.)” value was 71.1 % of w.t.

Regarding B8, the “Binding (% of w.t.)” value was 76.3 % of w.t.

Turning to B9, the “Binding (% of w.t.)” value is 53 % of w.t.

As to B10, the “Binding (% of w.t.)” value is 1.5 % of w.t.

For the molecule B11, the “Binding (% of w.t.)” value was 88.7 % of w.t.

For the molecule B12, the “Binding (% of w.t.)” value was 100 % of w.t.

Take B13: the “Binding (% of w.t.)” value was 52.6 % of w.t.

For B14, the “Binding (% of w.t.)” value is 61 % of w.t.

Turning to B15, the “Binding (% of w.t.)” value is 123 % of w.t.

Take B16: the “Binding (% of w.t.)” value is 38.7 % of w.t.

In the case of B17, the “Binding (% of w.t.)” value is 27.4 % of w.t.

With B18, the “Binding (% of w.t.)” value is 105 % of w.t.
